PMC3266953 (Scientific Reports, 2012)

Target: the molecule itself
Assay: crystal structure

B1: NcdG347D, truncated dimeric protein (MGSM-H293-K700) (domain or fragment)
chain: MGSMHAALSTEVVHLRQRTEELLRCNEQQAAELETCKEQLFQSNMERKELHNTVMDLRDNIRVFCRIRPPLESEENRMCCTWTYHDESTVELQSIDAQAKSKMGQQIFSFDQVFHPLSSQSDIFEMVSPLIQSALDGYNICIFAYGQTGSGKTYTMDGVPESVGVIPRTVDLLFDSIRGYRNLGWEYEIKATFLEIYNEVLYDLLSNEQKDMEIRMAKNNKNDIYVSNITEETVLDPNHLRHLMHTAKMNRATASTAGNERSSRSHAVTKLELIGRHAEKQEISVGSINLVDLAGSESPKTSTRMTETKNINRSLSELTNVILALLQKQDHIPYRNSKLTHLLMPSLGGNSKTLMFINVSPFQDCFQESVKSLRFAASVNSCKMTKAKRNRYLNNSVANSSTQSNNSGSFDK
**Q.** B1 was tested. Which “stoichiometry N” value did it give?
**A.** The value was 2.
